What was measured:
Assay type in all cases: in vivo, mouse
[1] = tested on: 8-week old (young) wild-type (C57BL/6) mice; assay: Contextual and cued fear conditioning in young mice treated with recombinant human LTA4H protein
Protocol: Mice were brought into the testing room immediately before their trial to avoid exposure to sounds and scents from testing. Day 1: For training, mice were placed in the chambers, bright house light and fan on, for 2 minutes. Then an auditory cue (2000 Hz, 70 dB, conditioned stimulus (CS)) was presented for 30 seconds. A 2 second foot shock (0.6 mA; unconditioned stimulus (US)) was administered for the final 2 seconds of the CS. This procedure was repeated once, each after a 2 minute interval, and the mouse was removed from the chamber 30 seconds after the second shock. The pans, chamber walls and grid floors were cleaned with 70% ethanol between trials. Day 2: Seventy-two hours after the training, the mouse was returned to the same chamber in which the training occurred (memory for context), and freezing behavior was recorded for 3 min. The mouse was returned to its home cage. The pans, chamber walls, and grid floors were cleaned with 70% ethanol between trials. Day 3: 24 hours after context testing, the mouse was returned to the same chamber and freezing was recorded in a novel environment (altered context) and in response to the cue (memory for cue). […] The mouse was placed in the novel environment and freezing was recorded for 2 minutes. The auditory cue (2000 Hz, 70 dB, CS) was then presented for 30 seconds, and freezing was again recorded for 2 minutes. […]

[2] = tested on: mRNA levels of neuronal and glial genes; assay: qPCR of mRNA levels in young mice treated with recombinant human LTA4H protein; conditions: paradigm 1; vs PBS
Protocol: (§1) Brain tissue was sectioned or lysed and analyzed for markers of neurogenesis and aging by standard histological and biochemical methods, including qRT-PCR, Western blot, ELISA, and immunohistochemistry.
(§2) Young, 8-week old wild-type (WT; C57BL/6) mice were homogenized between groups by body weight. Following group determination, mice were injected intraperitoneally (IP) with BrdU (5-bromo-2′-deoxyuridine) formulated in PBS (phosphate buffered saline) at a final concentration of 10 mg/mL dosed at 150 mg/kg for 5 days Immediately following the BrdU dosing, group 1 was injected intravenously (IV) with PBS control and group 2 with recombinant human LTA4H protein daily for 7 consecutive days. One week after the completion of LTA4H administration, in week 3, mice in both treatment groups were injected IP with EdU (5-ethynyl-2′-deoxyuridine) formulated in PBS at a final concentration of 10 mg/mL and dosed at 50 mg/kg for 5 days. Behavioral assays were executed in week 5 and 6, and animals were sacrificed, and tissues collected immediately after completion of behavior testing in week 6. FIG. 3 depicts the treatment paradigm and injection timing for the study.
FIG. 9 reports the results of quantitative polymerase chain reaction (qPCR) quantifying mRNA levels of vesicular glutamate […] (vglut1), synapsin 1 (syn1), synaptophysin (syp), early growth response 1 (egr1), doublecortin (dcx), beta III tubulin (tuj1), glial acidic fibrillary protein (gfap), SRY-Box 2 (sox2), oligodendrocyte transcription factor 2 in 3 months old (young) wild-type (C57BL/6) mice treated with recombinant human LTA4H protein or phosphate buffered saline (PBS) control. […] Egr1 is an immediate early gene and a reduction in expression is indicative of a depression of neuronal activity. Tuj1 is a neuronal marker and the reduction in expression points to detrimental effects on neurons. […] Overall the decreases in neuronal markers and trends towards decreases in oligodendrocyte markers indicate a detrimental effect on neuronal activity and integrity in LTA4H treated animals. […]

[3] = tested on: granule cell layer of the dentate gyrus; assay: Histology of labeled proliferating cells (EdU, Ki67, BrdU/DCX) in the dentate gyrus of young mice; conditions: for number of Ki67-labeled cells within the granule cell layer of the dentate gyrus: study week 6; for number of BrdU and DCX co-labeled cells within the granule cell layer of the dentate gyrus: BrdU in week 4
Protocol: (§3) Brains were collected following saline perfusion and separated by mid-sagittal slice with one-half drop fixed in freshly prepared 4% PFA. PFA was changed to 30% sucrose 24-48 hours later. A second change to 30% sucrose occurred 24 hours later. The second half was dissected into hippocampus and cortex and then snap frozen on dry ice.
as §1, §2
(§4) The initial study in young, 8-week old wild-type (WT; C57BL/6) mice was repeated in a second cohort of mice with additional timepoints and readouts. Mice were homogenized between 3 treatment groups by body weight. Group 1 (Vehicle) was injected intravenously (IV) with PBS control 3 times per week for 6 weeks, group 2 (LTA4H Pulse) with recombinant human LTA4H protein daily for 7 consecutive days, and group 3 (LTA4H Continuous) with recombinant human LTA4H protein 3 times per week for 6 weeks. In week 4 after the initiation of dosing, mice in all treatment groups were injected IP with BrdU (5-bromo-2′-deoxyuridine) formulated in PBS (phosphate buffered saline) at a final concentration of 10 mg/mL dosed at 150 mg/kg for 5 days. Behavioral assays were executed in week 5 and 6, and animals were sacrificed, and tissues collected immediately after completion of behavior testing in week 6. FIG. 10 depicts the treatment paradigm and injection timing for the study.

[4] = tested on: microglia in the hippocampus; assay: Histology of microglia markers (Iba1, CD68) in the hippocampus of young mice
Protocol: as §3, §1
as §4, with “Behavioral assays were executed in week 5 and 6, and animals were sacrificed, and tissues collected immediately after completion of behavior testing in week 6. FIG. 10 depicts the treatment paradigm and injection timing for the study.” left out

B1: recombinant human LTA4H: Recombinant human LTA4H (Bio-techne, 4008-SN), leukotriene A4 hydrolase enzyme, dosed by tail vein i.v. injection (protein, UniProt P09960 2-611, looked up)
Leukotriene A-4 hydrolase: PEIVDTCSLASPASVCRTKHLHLRCSVDFTRRTLTGTAALTVQSQEDNLRSLVLDTKDLTIEKVVINGQEVKYALGERQSYKGSPMEISLPIALSKNQEIVIEISFETSPKSSALQWLTPEQTSGKEHPYLFSQCQAIHCRAILPCQDTPSVKLTYTAEVSVPKELVALMSAIRDGETPDPEDPSRKIYKFIQKVPIPCYLIALVVGALESRQIGPRTLVWSEKEQVEKSAYEFSETESMLKIAEDLGGPYVWGQYDLLVLPPSFPYGGMENPCLTFVTPTLLAGDKSLSNVIAHEISHSWTGNLVTNKTWDHFWLNEGHTVYLERHICGRLFGEKFRHFNALGGWGELQNSVKTFGETHPFTKLVVDLTDIDPDVAYSSVPYEKGFALLFYLEQLLGGPEIFLGFLKAYVEKFSYKSITTDDWKDFLYSYFKDKVDVLNQVDWNAWLYSPGLPPIKPNYDMTLTNACIALSQRWITAKEDDLNSFNATDLKDLSSHQLNEFLAQTLQRAPLPLGHIKRMQEVYNFNAINNSEIRFRWLRLCIQSKWEDAIPLALKMATEQGRMKFTRPLFKDLAAFDKSHDQAVRTYQEHKASMHPVTAMLVGKDLKVD
With B1 as the molecule, how does the “percent time freezing during contextual testing” value ([1]; 72 hours after training, IV daily for 7 consecutive days, vs PBS) read?
Its value is “significantly decreased freezing”.

And the “percent time freezing during cued testing” value ([1]; pre/post cue tone, difference between treatment groups)?
Its value is “no significant difference between treatment groups”.

And the “egr1 mRNA expression (qPCR)” value [2]?
The value was “significant decrease”.

And the “olig 2 mRNA expression (qPCR)” value [2]?
Its value is “trend towards a decrease”.

What about the “tuj1 mRNA expression (qPCR)” value [2] of the same molecule?
Its value is “significant decrease”.

And the “number of EdU-labeled cells within the granule cell layer of the dentate gyrus” value ([3]; paradigm 1, EdU in week 3, vs PBS)?
Its value is “significant decrease”.

What about the “number of Ki67-labeled cells within the granule cell layer of the dentate gyrus” value ([3]; paradigm 1, vs PBS, listed as human recombinant LTA4H protein) of the same molecule?
Its value is “significant decrease”.

And the “number of Ki67-labeled cells within the granule cell layer of the dentate gyrus” value ([3]; paradigm 1, vs PBS, listed as recombinant LTA4H)?
Its value is “fewer Ki67 labeled cells”.

What about the “number of BrdU and DCX co-labeled cells within the granule cell layer of the dentate gyrus” value ([3]; paradigm 2: continuous dosing) of the same molecule?
The value was “significant decrease”.

And the “number of BrdU and DCX co-labeled cells within the granule cell layer of the dentate gyrus” value ([3]; paradigm 2: pulse dosing)?
Its value is “statistical trend towards a decrease”.

And the “average number of Iba1-labeled cells in the hippocampus” value ([4]; paradigm 2: pulse dosing, relative to vehicle PBS)?
The value was “significant increase”.

And the “average number of CD68-labeled cells in the hippocampus” value ([4]; paradigm 3: 10 days following pulse dosing (IV daily, 7 days), relative to PBS)?
Its value is “significant increase”.

Reference: patent publication US11344542B2, “Treatment of aging-associated disease with modulators of leukotriene A4 hydrolase” (Alkahest, Inc., priority 2018, dated 2022)
